# From IntAct's records for PubMed 17699623
# B1: Protein BZR1 homolog 1 (Oryza sativa subsp. japonica (Rice)), Q7XI96 (parent)
# chain: MTSGAAAAGRTPTWKERENNKRRERRRRAIAAKIFTGLRALGNYNLPKHCDNNEVLKALCREAGWVVEDDGTTYRKGCKPPPSSAGGASVGMSPCSSTQLLSAPSSSFPSPVPSYHASPASSSFPSPSRIDNPSASCLLPFLRGLPNLPPLRVSSSAPVTPPLSSPTASRPPKIRKPDWDVDPFRHPFFAVSAPASPTRGRRLEHPDTIPECDESDVSTVDSGRWISFQMATTAPTSPTYNLVNPGASTSNSMEIEGTAGRGGAEFEFDKGRVTPWEGERIHEVAAEELELTLGVGAK
# partner: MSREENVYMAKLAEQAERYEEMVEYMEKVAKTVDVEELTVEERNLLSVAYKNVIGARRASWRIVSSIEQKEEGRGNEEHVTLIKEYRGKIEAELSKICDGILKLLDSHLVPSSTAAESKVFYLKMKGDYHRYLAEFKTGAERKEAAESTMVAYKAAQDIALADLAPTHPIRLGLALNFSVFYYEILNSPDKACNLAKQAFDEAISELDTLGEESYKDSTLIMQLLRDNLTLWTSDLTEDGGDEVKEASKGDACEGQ
# Variants of: B1
# Conditions: with 14333_orysj GF14C
row,Variant,effect of a mutation on the interaction
1,MTSGAAAAGRTPTWKERENNKRRERRRRAIAAKIFTGLRALGNYNLPKHCDNNEVLKALCREAGWVVEDDGTTYRKGCKPPPSSAGGASVGMSPCSSTQLLSAPSSSFPSPVPSYHASPASSSFPSPSRIDNPSASCLLPFLRGLPNLPPLRVSSGAPVTPPLSSPTASRPPKIRKPDWDVDPFRHPFFAVSAPASPTRGRRLEHPDTIPECDESDVSTVDSGRWISFQMATTAPTSPTYNLVNPGASTSNSMEIEGTAGRGGAEFEFDKGRVTPWEGERIHEVAAEELELTLGVGAK [S156G],disrupting interaction
